From the PETadex activity labels (doi:10.1042/bj20051645) come the findings set out here.

Substrate in the data set: p-NP-C4
The note with it: pH 7; 37 °C.

Residue numbers refer to the chain shown, from its start.

B1: unnamed (protein)
chain: MMNFNNVFRWHLPFLFLVLLTFRAAAADTLLILGDSLSAGYRMSASAAWPALLNDKWQSKTSVVNASISGDTSQQGLARLPALLKQHQPRWVLVELGGNDGLRGFQPQQTEQTLRQILQDVKAANAEPLLMQIRLPANYGRRYNEAFSAIYPKLAKEFDVPLLPFFMEEVYLKPQWMQDAGIHPNRDAQPFIADWMAKQLQPLVNHDS
For the protein B1, the Km was 1880 µM, the kcat was 5.98 s⁻¹ and the kcat/Km stood at 3180 M⁻¹ s⁻¹.

B2: unnamed (protein)
chain: B1 chain with N99A, A180D
For the protein B2, the Km worked out at 1660 µM, the kcat amounted to 12 s⁻¹ and the catalytic efficiency (kcat/Km) amounted to 7220 M⁻¹ s⁻¹.

B3: unnamed (protein)
chain: B1 chain with A180D, H183A
Turning to B3, the Km was 610 µM, the catalytic constant (kcat) was 0.0093 s⁻¹ and the kcat/Km stood at 15.2 M⁻¹ s⁻¹.

B4: unnamed (protein)
chain: B1 chain with S36A, A180D
Consider B4, for which the Km was determined as 1550 µM, the turnover number (kcat) is 0.16 s⁻¹ and the kcat/Km is 103 M⁻¹ s⁻¹.

B5: unnamed (protein)
chain: B1 chain with A180D
On to B5, for which the Km worked out at 870 µM, the kcat turned out to be 15.3 s⁻¹ and the catalytic efficiency (kcat/Km) was determined as 17600 M⁻¹ s⁻¹.

B6: unnamed (protein)
chain: B1 chain with G70A, A180D
For B6, the Km is 1100 µM, the kcat is 3.16 s⁻¹ and the catalytic efficiency (kcat/Km) worked out at 2870 M⁻¹ s⁻¹.
